Like-named read-outs stand apart in the source and are kept apart here.
Columns and labels:
HSP90α mutant Y61A = HSP90α mutant Y61A (Homo sapiens, UniProt P07900, Y61A); assay: biochemical
[1] = target: HSP90α (90 kD heat shock protein alpha) (Homo sapiens, UniProt P07900); assay: biochemical
[2] = target: CDC37 recombinant protein (UniProt Q16543); assay: ITC
[3] = target: CDC37 recombinant protein (UniProt Q16543); assay: ITC; remark: listed apart in the source

Sequence of CDC37 recombinant protein (Q16543 whole entry): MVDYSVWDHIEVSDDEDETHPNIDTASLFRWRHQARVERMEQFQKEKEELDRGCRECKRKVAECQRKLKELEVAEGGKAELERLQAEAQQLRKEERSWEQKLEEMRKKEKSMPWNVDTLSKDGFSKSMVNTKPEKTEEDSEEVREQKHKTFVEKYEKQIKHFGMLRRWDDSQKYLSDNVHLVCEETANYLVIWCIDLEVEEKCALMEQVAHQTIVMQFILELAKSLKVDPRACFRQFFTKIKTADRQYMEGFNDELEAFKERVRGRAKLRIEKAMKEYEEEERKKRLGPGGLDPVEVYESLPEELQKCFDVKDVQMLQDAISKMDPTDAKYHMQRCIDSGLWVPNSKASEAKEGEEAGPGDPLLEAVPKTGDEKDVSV

Kd [2] | Kd [3] | Compound | Kd (HSP90α mutant Y61A) | Kd [1]
 |  | CC(C)=CC/C=C(\C)[C@H]1CC[C@]2(C)[C@@H]1[C@H](O)C[C@@H]1[C@@]3(C)CC[C@H](O[C@@H]4O[C@H](CO)[C@@H](O)[C@H](O)[C@H]4O[C@@H]4O[C@H](CO)[C@@H](O)[C@H](O)[C@H]4O)C(C)(C)[C@@H]3CC[C@]12C [Rg5, ginsenoside Rg5] | 232 ± 34 µM | 24.8 ± 1.76 µM
34.4 µM | 2.68 µM | HSP90α WT recombinant protein from E. coli (from UniProt P07900 1-732) (natural protein) |  | 
8.23 µM | 7.59 µM | HSP90α Y61A recombinant protein from E. coli (from UniProt P07900 1-732) (natural protein) |  | 
